Results from the supplement of paper PMC11246515.
± gives the standard deviation of the averaged measurements.

Experiment: total protein half-life in vivo (active degradation + dilution); higher = more stable protein
[1] = E. coli NCM3722 delta-clpP delta-lon delta-hslV, growth: N-lim chemostat, doubling time 6 h
[2] = E. coli NCM3722 delta-clpP, growth: N-lim chemostat, doubling time 6 h
[3] = E. coli NCM3722 delta-hslV, growth: N-lim chemostat, doubling time 6 h
[4] = E. coli NCM3722 delta-lon, growth: N-lim chemostat, doubling time 6 h
[5] = E. coli NCM3722 delta-smpB, growth: N-lim chemostat, doubling time 6 h
[6] = wild type E. coli NCM3722, growth: C-lim chemostat, doubling time 3 h
[7] = wild type E. coli NCM3722, growth: C-lim chemostat, doubling time 6 h
[8] = wild type E. coli NCM3722, growth: N-lim chemostat, doubling time 6 h
[9] = wild type E. coli NCM3722, growth: N-lim chemostat, doubling time 12 h
[10] = wild type E. coli NCM3722, growth: P-lim chemostat, doubling time 12 h
[11] = wild type E. coli NCM3722, growth: C-lim chemostat, doubling time 12 h
[12] = wild type E. coli NCM3722, growth: P-lim chemostat, doubling time 6 h

Sequence | total protein half-life in vivo [1] | total protein half-life in vivo [2] | total protein half-life in vivo [3] | total protein half-life in vivo [4] | total protein half-life in vivo [5] | total protein half-life in vivo [6] | total protein half-life in vivo [7] | total protein half-life in vivo [8] | total protein half-life in vivo [9] | total protein half-life in vivo [10] | total protein half-life in vivo [11] | total protein half-life in vivo [12]
MRKQWLGICIAAGMLAACTSDDGQQQTVSVPQPAVCNGPIVEISGADPRFEPLNATANQDYQRDGKSYKIVQDPSRFSQAGLAAIYDAEPGSNLTASGEAFDPTQLTAAHPTLPIPSYARITNLANGRMIVVRINDRGPYGNDRVISLSRAAADRLNTSNNTKVRIDPIIVAQDGSLSGPGMACTTVAKQTYALPAPPDLSGGAGTSSVSGPQGDILPVSNSTLKSEDPTGAPVTSSGFLGAPTTLAPGVLEGSEPTPAPQPVVTAPSTTPATSPAMVTPQAVSQSASGNFMVQVGAVSDQARAQQYQQQLGQKFGVPGRVTQNGAVWRIQLGPFASKAEASTLQQRLQTEAQLQSFITTAQ | 5.56 ± 0.12 h | 5.78 ± 0.37 h | 6.5 ± 0.56 h | 6.29 ± 0.38 h | 5.65 ± 0.12 h | 3.1 ± 0.15 h | 5.89 ± 0.42 h | 6.17 ± 0.07 h | 13.4 ± 2.2 h | 12.38 ± 0.038 h | – | –
MPVRAQRIQHVMQDTIINFYSTSDDYGDFSNFAAWPIKVDGKTWPTSEHYFQAQKFLDEKYREEIRRVSSPMVAARMGRDRSKPLRKNWESVKEQVMRKALRAKFEQHAELRALLLATAPAKLVEHTENDAYWGDGGHGKGKNRLGYLLMELREQLAIEK | – | – | 4.25 h | – | – | – | – | – | – | – | 12.3 h | –
MMKLMFASDIHGSLPATERVLELFAQSGAQWLVILGDVLNHGPRNALPEGYAPAKVAERLNEVAHKVIAVRGNCDSEVDQMLLHFPITAPWQQVLLEKQRLFLTHGHLFGPENLPALNQNDVLVYGHTHLPVAEQRGEIFHFNPGSVSIPKGGNPASYGMLDNDVLSVIALNDQSIIAQVAINP | – | 4.01 ± 0.21 h | 3.75 ± 0.28 h | 4.04 ± 0.35 h | 3.97 ± 0.34 h | 2.7 ± 0.24 h | 5.48 ± 0.14 h | 4 ± 0.66 h | 6.84 ± 0.35 h | 10.1 ± 0.38 h | 9.4066 ± 0.0045 h | 5.32 ± 0.64 h
MIRLAPLITADVDTTTLPGGKASDAAQDFLALLSEALAGETTTDKAAPQLLVATDKPTTKGEPLISDIVSDAQQANLLIPVDETPPVINDEQSTSTPLTTAQTMALAAVADKNTTKDEKADDLNEDVTASLSALFAMLPGFDNTPKVTDAPSTVLPTEKPTLFTKLTSEQLTTAQPDDAPGTPAQPLTPLVAEAQSKAEVISTPSPVTAAASPLITPHQTQPLPTVAAPVLSAPLGSHEWQQSLSQHISLFTRQGQQSAELRLHPQDLGEVQISLKVDDNQAQIQMVSPHQHVRAALEAALPVLRTQLAESGIQLGQSNISGESFSGQQQAASQQQQSQRTANHEPLAGEDDDTLPVPVSLQGRVTGNSGVDIFA | 2.6 h | – | – | – | – | 0.287 h | 0.34 h | – | – | – | – | –
MIVLVTGATAGFGECITRRFIQQGHKVIATGRRQERLQELKDELGDNLYIAQLDVRNRAAIEEMLASLPAEWCNIDILVNNAGLALGMEPAHKASVEDWETMIDTNNKGLVYMTRAVLPGMVERNHGHIINIGSTAGSWPYAGGNVYGATKAFVRQFSLNLRTDLHGTAVRVTDIEPGLVGGTEFSNVRFKGDDGKAEKTYQNTVALTPEDVSEAVWWVSTLPAHVNINTLEMMPVTQSYAGLNVHRQ | 5.86 ± 0.16 h | – | 6.26 ± 1.3 h | 6.57 ± 1.4 h | 4.72 ± 0.53 h | – | – | 4.82 ± 0.56 h | 8.94 ± 0.42 h | 11.6 ± 1.9 h | 10.8 ± 0.87 h | 6.44 ± 0.14 h
MIYPDEAMLYAPVEWHDCSEGFEDIRYEKSTDGIAKITINRPQVRNAFRPLTVKEMIQALADARYDDNIGVIILTGAGDKAFCSGGDQKVRGDYGGYKDDSGVHHLNVLDFQRQIRTCPKPVVAMVAGYSIGGGHVLHMMCDLTIAADNAIFGQTGPKVGSFDGGWGASYMARIVGQKKAREIWFLCRQYDAKQALDMGLVNTVVPLADLEKETVRWCREMLQNSPMALRCLKAALNADCDGQAGLQELAGNATMLFYMTEEGQEGRNAFNQKRQPDFSKFKRNP [P0ABU0] | 4.73 ± 0.74 h | 4.048 ± 0.036 h | 4.15 ± 0.17 h | 4.48 ± 0.44 h | 3.8 ± 0.061 h | 2.9 ± 0.51 h | 5.55 ± 0.53 h | 3.88 ± 0.12 h | 6.07 ± 0.33 h | 10.85 ± 0.06 h | 9.64 ± 0.8 h | 5.58 ± 0.069 h
MKALSKLKAEEGIWMTDVPVPELGHNDLLIKIRKTAICGTDVHIYNWDEWSQKTIPVPMVVGHEYVGEVVGIGQEVKGFKIGDRVSGEGHITCGHCRNCRGGRTHLCRNTIGVGVNRPGCFAEYLVIPAFNAFKIPDNISDDLAAIFDPFGNAVHTALSFDLVGEDVLVSGAGPIGIMAAAVAKHVGARNVVITDVNEYRLELARKMGITRAVNVAKENLNDVMAELGMTEGFDVGLEMSGAPPAFRTMLDTMNHGGRIAMLGIPPSDMSIDWTKVIFKGLFIKGIYGREMFETWYKMAALIQSGLDLSPIITHRFSIDDFQKGFDAMRSGQSGKVILSWD | 4.87 ± 0.096 h | 5 ± 0.21 h | 5.96 ± 1.6 h | 5.24 ± 0.061 h | 4.44 ± 0.18 h | 2.439 ± 0.022 h | 4.37 ± 0.59 h | 4.85 ± 0.16 h | 8.68 ± 0.96 h | 12.6 ± 0.36 h | 9.68 ± 1.8 h | 6.2 ± 0.19 h
